Numbering of substitutions follows the chain as printed. Names and notes keep the numbering of the source.
B1: EGSh Wild-type: Staphylothermus hellenicus-derived endoglucanase, SEQ ID NO: 19, parent endoglucanase (protein)
chain: MPARTRIACAVILLLVFLALYIAWPVEGSFLKQQPYNELRGRVLGSNIQIPKDHIPYYHIVNGTIYMDDKLIHLFGVSWFGFELPDHIVYGLWARNWKDILKDIKEMGFNAIRLPFCHESITPGTKPVPGRISYSLNPDLRNLTSLEIMEKIISYANELNIFVLLDYHRIGCRYIEPLWYTDNFSEEQYIKDWVFLAQKFGKYPNVIGADIKNEPHDSASWGTGDNKTDFRLFAERVGQAILQVAPHWLIFIEGVQYTHVPEIDGRNPYSCFWGENLMGVKDYPVRLPKDKIVYSPHVYGPSVYNMPYFNDPEFPRNLPKIWELHFGYLKELGYAIVIGEWGGRYVGKDKVWQDAFADWLIQKGIYDFFYWCLNPESGDTGGIFKSDWRTVNQDKLNLIHRIINAASQAQASTISGKHDWKTYLVLIAPTLLPVLILVILVLLIIKRRYTKKQ
modifications: Staphylothermus hellenicus EGSh
B2: EGSh Mutant: mutant EGSh, SEQ ID NO: 20; residue corresponding to 273rd tryptophan substituted with alanine (protein)
chain: B1 chain with W273A
modifications: Staphylothermus hellenicus EGSh W273A
notes: residue corresponding to 273rd tryptophan substituted with alanine
B3: EGPh(W273Y): comparative mutant of EGPh, the 273rd tryptophan substituted with tyrosine, SEQ ID NO: 49 (protein)
chain: MEGNTILKIVLICTILAGLFGQVVPVYAENTTYQTPTGIYYEVRGDTIYMINVTSGEETPIHLFGVNWFGFETPNHVVHGLWKRNWEDMLLQIKSLGFNAIRLPFCTESVKPGTQPIGIDYSKNPDLRGLDSLQIMEKIIKKAGDLGIFVLLDYHRIGCTHIEPLWYTEDFSEEDFINTWIEVAKRFGKYWNVIGADLKNEPHSVTSPPAAYTDGTGATWGMGNPATDWNLAAERIGKAILKVAPHWLIFVEGTQFTNPKTDSSYKWGYNAWYGGNLMAVKDYPVNLPRNKLVYSPHVYGPDVYNQPYFGPAKGFPDNLPDIWYHHFGYVKLELGYSVVIGEFGGKYGHGGDPRDVIWQNKLVDWMIENKFCDFFYWSWNPDSGDTGGILQDDWTTIWEDKYNNLKRLMDSCSKSSSSTQSVIRSTTPTKSNTSKKICGPAILIILAVFSLLLRRAPR
modifications: Pyrococcus horikoshii EGPh W273Y
B4: EGPh(W273F): comparative mutant of EGPh, tryptophan substituted with phenyl alanine, SEQ ID NO: 50 (protein)
chain: B3 chain with Y273F
modifications: Pyrococcus horikoshii EGPh W273F

What was measured:
[1] = Activity to degrade phosphoric acid swollen cellulose; type: biochemical
Procedure: The term “identity” refers to the percentage of amino acid residues identical to and amino acid residues analogous to the other amino acid residues in all the amino acid residues overlapped when an optimum alignment is performed by introducing gaps or no gaps into two amino acid sequences and then aligning the two amino acid sequences. Such an identity can be found using a method known by persons skilled in the art, sequence analysis software, and the like (a known algorithm such as BLAST or FASTA). The term “endoglucanase activity” is as defined above and can be determined by adding an enzyme solution to a substrate solution of phosphoric acid swollen cellulose that has been dissolved in 50 mM acetic acid-sodium acetate buffer (pH 5.2) or the like, performing 1 hour of reaction at 30° C. to 85° C., stopping the reaction by changing the pH if necessary, and then determining the concentration of glucose in the reaction solution using a glucose determination kit, for example.
The mutants obtained in Comparative Example 1 were compared in terms of activity by a technique similar to that in Example 3. The concentration (g/L) of glucose generated by each parent endoglucanase under the above reaction conditions was determined to be 100%.

[2] = Inhibition experiment with vanillin: degradation of phosphoric acid swollen cellulose; type: biochemical; settings: enzyme 0.5 μM, 1 hour, 50° C., parent at 0 mM = 100%
Procedure: (§6) This substance was diluted using buffer and water to obtain a 2 wt % mixture so that the final concentration of sodium acetate was 50 mM (pH 5.2). This was designated as phosphoric acid swollen cellulose and used for the following examples.
The activity of the wild-type and the mutant endoglucanases to degrade phosphoric acid swollen cellulose in the presence of vanillin was measured. 1% phosphoric acid swollen cellulose/50 mM acetate buffer (pH 5.2) was used as a substrate. Vanillin (Sigma Aldrich) was added at final concentrations of 0, 5, 10, and 15 mM. The enzymes prepared in Reference Example 1 and Example 2 were added at a final concentration of 0.5 μM, followed by 1 hour of enzymatic reaction at 50° C.

[3] = Inhibition experiment with ferulic acid: degradation of phosphoric acid swollen cellulose; type: biochemical; settings: enzyme 0.5 μM, 1 hour, 50° C., parent at 0 mM = 100%
Procedure: as §6
The activity of the wild-type and the mutant endoglucanases to degrade phosphoric acid swollen cellulose was measured in the presence of ferulic acid. 1% phosphoric acid swollen cellulose/50 mM acetate buffer (pH 5.2) was used as a substrate. Ferulic acid (Sigma Aldrich) was added at final concentrations of 0, 5, 10, and 15 mM. The enzymes prepared in Reference Example 1 and Example 2 were each added at a final concentration of 0.5 μM, followed by 1 hour of enzymatic reaction at 50° C.

[4] = Saccharification of lignocellulose 1 with Celluclast and endoglucanase; type: biochemical, Rice straw; settings: 5 wt % Lignocellulose 1, pH 5.2, 50° C., 24 hours; 1.0 mg/mL cellulase + 0.1 mg/mL endoglucanase
Procedure: (§1) Rice straw was used as cellulose. The cellulose was added to a small reactor (Taiatsu Techno Corporation, TVS-N2 (30 ml)), and then cooled with liquid nitrogen. An ammonia gas was fed to the reactor, thereby completely immersing the sample in the liquid ammonia. The reactor was closed using its lid, and then left to stand at room temperature for 15 minutes. Subsequently, treatment was performed for 1 hour in an oil bath at 150° C. After treatment, the reactor was removed from the oil bath, an ammonia gas leak was immediately performed within a draft chamber. The reactor was vacuumed using a vacuum pump to 10 Pa for drying. The resultant was used as lignocellulose 1 in the following examples.
(§2) The changes in the amount of glucose generated when the enzyme composition had been caused to act on lignocellulose substrates were compared. The substrates were prepared by suspending 5 wt % lignocelluloses (1 to 3) (prepared in Reference Example 3) in 50 mM acetate buffer (pH5.2). Reactions were performed at 50° C. for 24 hours. The concentrations of the generated glucose were measured after adequate sampling. As a filamentous bacterium-derived cellulase mixture, commercially available Trichoderma reesei-derived cellulase (Celluclast, Sigma) was used. As endoglucanases, the mutant endoglucanases prepared in Example 2 and the wild-type endoglucanases prepared in Reference Example 1 were separately used. The following quantities of enzymes were added: 1.0 mg/mL cellulase, and 0.1 mg/mL endoglucanase (in an amount one tenth that of the cellulase).

[5] = Saccharification of lignocellulose 2 with Celluclast and endoglucanase; type: biochemical, Rice straw; settings: 5 wt % Lignocellulose 2, pH 5.2, 50° C., 24 hours; 1.0 mg/mL cellulase + 0.1 mg/mL endoglucanase
Procedure: (§3) Rice straw was used as cellulose. Cellulose was immersed in a 1% aqueous sulfuric acid solution, and then autoclaved for 30 minutes at 150° C. (Nitto Koatsu Co. Ltd.). After treatment, the resultant was subjected to solid-liquid separation into an aqueous sulfuric acid solution (hereinafter, referred to as “dilute-sulfuric-acid-treated solution”) and cellulose treated with sulfuric acid. Next, the cellulose treated with sulfuric acid was mixed and agitated with the dilute-sulfuric-acid-treated solution so that the solid content concentration was 10 wt %. Then the mixture was adjusted to around pH 5 using sodium hydroxide. The resultant was used as lignocellulose 2 for the following examples.
as §2

[6] = Saccharification of lignocellulose 3 with Celluclast and endoglucanase; type: biochemical, Rice straw; settings: 5 wt % Lignocellulose 3, pH 5.2, 50° C., 24 hours; 1.0 mg/mL cellulase + 0.1 mg/mL endoglucanase
Procedure: (§4) Rice straw was used as cellulose. The cellulose was immersed in water, and then autoclaved with agitation at 180° C. for 20 minutes (Nitto Koatsu Co. Ltd.). Pressure at this time was 10 MPa. After treatment, a solution component (hereinafter, referred to as “hydrothermally treated solution”) and the treated biomass component were subjected to solid-liquid separation by centrifugation (3000 G). The thus treated biomass component was used as lignocellulose 3 for the following examples.
as §2

[7] = Saccharification of lignocellulose 1 with Trichoderma reesei culture solution and endoglucanase; type: biochemical, Rice straw; settings: Lignocellulose 1, 24 hours; cellulase 1.0 mg/mL + endoglucanase 0.1 mg/mL + β-glucosidase (Novozyme 188) 0.01 mg/mL
Procedure: as §1, §2
(§5) Lignocelluloses (1-3) prepared in Reference Example 3 were used as substrates. The Trichoderma reesei culture solution prepared in Reference Example 4 was used as a filamentous bacterium-derived cellulase mixture. Lignocelluloses (1-3) were hydrolyzed in a manner similar to that in Example 7, except for the quantities of the enzymes added: cellulase (1.0 mg/mL); endoglucanase (0.1 mg/mL (in an amount one tenth that of the cellulase); and β-glucosidase (Novozyme 188) (0.01 mg/mL (in an amount one hundredth that of the cellulase).

[8] = Saccharification of lignocellulose 2 with Trichoderma reesei culture solution and endoglucanase; type: biochemical, Rice straw; settings: Lignocellulose 2, 24 hours; cellulase 1.0 mg/mL + endoglucanase 0.1 mg/mL + β-glucosidase (Novozyme 188) 0.01 mg/mL
Procedure: as §3, §2, §5

[9] = Saccharification of lignocellulose 3 with Trichoderma reesei culture solution and endoglucanase; type: biochemical, Rice straw; settings: Lignocellulose 3, 24 hours; cellulase 1.0 mg/mL + endoglucanase 0.1 mg/mL + β-glucosidase (Novozyme 188) 0.01 mg/mL
Procedure: as §4, §2, §5

[10] = 1% phosphoric acid swollen cellulose, pH 5.2, enzyme 0.5 μM, 1 hour, 50° C., glucose generated by each parent endoglucanase = 100%
[11] = Comparative Example 2, technique similar to Example 3, parent endoglucanase = 100%

Molecule | Relative activity [1, 10] | Relative activity to degrade phosphoric acid swollen cellulose ([2]; vanillin 0 mM) | Relative activity to degrade phosphoric acid swollen cellulose ([2]; vanillin 5 mM) | Relative activity to degrade phosphoric acid swollen cellulose ([2]; vanillin 10 mM) | Relative activity to degrade phosphoric acid swollen cellulose ([2]; vanillin 15 mM) | Relative activity to degrade phosphoric acid swollen cellulose ([3]; ferulic acid 0 mM) | Relative activity to degrade phosphoric acid swollen cellulose ([3]; ferulic acid 5 mM) | Relative activity to degrade phosphoric acid swollen cellulose ([3]; ferulic acid 10 mM) | Relative activity to degrade phosphoric acid swollen cellulose ([3]; ferulic acid 15 mM) | Relative activity [1, 11] | other results
B1 | 100% | 100% | 40% | 35% | 30% | 100% | 65% | 55% | 50% | – | Concentration of glucose generated, Celluclast + Wild-type [4]: 12 g/L; Concentration of glucose generated, Celluclast + Wild-type [5]: 11 g/L; Concentration of glucose generated, Celluclast + Wild-type [6]: 12 g/L; Concentration of glucose generated, Culture solution + Wild-type [7]: 9 g/L; Concentration of glucose generated, Culture solution + Wild-type [8]: 8 g/L; Concentration of glucose generated, Culture solution + Wild-type [9]: 9 g/L
B2 | 100% | 100% | 90% | 85% | 80% | 100% | 95% | 85% | 80% | – | Concentration of glucose generated, Celluclast + Mutant [4]: 14 g/L; Concentration of glucose generated, Celluclast + Mutant [5]: 15 g/L; Concentration of glucose generated, Celluclast + Mutant [6]: 15 g/L; Concentration of glucose generated, Culture solution + Mutant [7]: 11 g/L; Concentration of glucose generated, Culture solution + Mutant [8]: 12 g/L; Concentration of glucose generated, Culture solution + Mutant [9]: 12 g/L
B3 | – | – | – | – | – | – | – | – | – | 100% | –
B4 | – | – | – | – | – | – | – | – | – | 100% | –

Source: patent US9193963B2, “Mutant endoglucanase” (Toray Industries, Inc., priority 2011, dated 2015)
